Patent US20090163410A1, “Novel Peptides and the Biological Use Thereof” (priority 2005, published 2009)

Tests used:
[1] = target: peptide-phage 07B2S3 (fd phage) (UniProt P03661)
[2] = target: peptide-phage 08B2S3 (fd phage) (UniProt P03661)
[3] = target: HIV-1 (Lai) Nef/SH3-Hck interaction (Human immunodeficiency virus type 1 group M subtype B, UniProt P03406); settings: for repression of the Nef-SH3 interaction as measured in the cell assay: COS-7 cells (FIG. 5B)
From the text: This assay makes it possible to integrate the cellular toxicity and bioavailability parameters by means of quantitative and functional reading of the interaction between two protein partners.
The Checkmate™ commercial system (Promega) was adapted to the HIV-1 (Lai) Nef/SH3-Hck pair in COS-7 cell culture (FIG. 5). This system combines the expression of firefly luciferase under the control of the interaction between Nef and the SH3 domain of Hck, and the expression, which is independent, of renilla luciferase, a control for cell viability. The ratio of the intensity of these two luciferases makes it possible to quantify the activity of a Nef-SH3-interaction competitor capable of penetrating into the cell and the half-life of which is sufficient over the time period of the analysis. Other protein interactions are also reconstituted in this assay: one, which is non-SH3 (between Id and MyoD), in order to exclude the compounds having a nonspecific activity on the luciferase expression, and the other between SH3 of Hck and the SAM68 protein, in order to identify the compounds which interact via the SH3 domain and not via Nef.
The cells are transferred using Fugene6 (Roche), according to the distributor's protocol. Briefly, the plasmids PG5 (300 ng), pAct or pActNef (400 ng), pBindHckmutated or pBindHck (100 ng) and pbcks (200 ng) are mixed, and then the Fugene 6 (3 μl diluted in 100 μl of DMEM culture medium) is added. The plasmids/Fugene6 mixture is left to react for a period of 15 min at ambient temperature, and is then deposited dropwise into the cell culture well.
After expression for 24H, the cells are harvested by treatment with trypsin (Gibco, ref 25300-054), washed, and then dispensed into 96-well plates (reference 353072, Beckton Dickinson). 50 μl of DMEM culture medium are then added to each well.
The activity of a candidate inhibitor compound is tested by adding 25 μl of this diluted compound to the well already containing 50 μl of the cell culture, and the luciferase activity is determined 24 H later in each well using the DualGlo assay kit according to the recommendations of the supplier (Promega).

Substance	repression of the Nef-SH3 interaction as measured in the cell assay [3]	also measured
NefΔ1-57 protein (Nef HIV-1 LAI, residues 1 to 57 deleted) (from UniProt P03406 58-206)	–	IC50 [1]: 1000 nM; IC50 [2]: 1000 nM
R Ahx R Ahx R Ahx R Ahx R Ahx R Ahx R W P A W L P [SEQ ID No. 19]	repress the Nef-SH3 interaction as measured in the cell assay, in a dose-dependent manner	–
R Q I K I W F Q N R Nle K W K K [SEQ ID No. 15]	repress the Nef-SH3 interaction as measured in the cell assay, in a dose-dependent manner	–
R R R R R R R R W P A W L P [SEQ ID No. 17]	repress the Nef-SH3 interaction as measured in the cell assay, in a dose-dependent manner	–
W P A W L P (WPAWLP) [SEQ ID No. 11]	–	biological activity on the Nef-SH3 interaction (firefly/renilla luciferase ratio) ([3]; COS-7 cells, 10 to 50 μM of the peptide, compared with a control molecule, various times and periods of addition (FIG. 5B)): does not show any notable biological activity at low concentration
